US20260097138A1, “BIOMATERIAL COATED NANOSTRUCTURES FOR PHOTOACOUSTIC IMAGING AND PHOTOTHERMAL THERAPY OF TUMOR LESIONS” (OSPEDALE SAN RAFFAELE S.R.L., priority 2022, published 2026)
Values joined by “and” are separate entries in the source; they are usually repeats but may differ in a detail not shown here. Identical values can stand only once.

Key:
[1] = In vitro PAI of GNRs in agar drops; conditions: agar drop, no IL
Text: (§1) US and PAI of GNRs@Chit and GNRs@Chit-Iso4: High-resolution US and PA imaging have been acquired using the Vevo LAZR-X platform (FUJIFILM VisualSonics, Inc., Toronto, ON, Canada). The imaging platform includes a high frequency US system (Vevo 3100) combined with an Nd:YAG nano-second pulsed laser with repetition rate of 20 Hz. The linear US transducer array Mx 550D consists of 256 elements with a nominal center frequency of 40 MHz (25-55 MHz bandwidth) and a spatial resolution of 40 μm with a maximum imaging depth of 15 mm. Light from the laser is delivered to the tissue through optical fibers mounted on either side of the transducer. During volumetric US-PA acquisitions, a stepper motor is used for the linear translation of the US transducer and optical fibers along the sample. The linear stepper motor moves in steps of a minimum of 0:1 mm while capturing 2-D parallel images, for a maximum 3D range distance of 6.4 cm.
(§2) 3D B mode scan was carried out for in vitro (drop) and in vivo (mouse bladder) studies. […]
In vitro PAI of GNRs was carried out as follows: GNRs (30 μl in DPBS with calcium and magnesium) were mixed with a 1% agar solution (30 μl), the mixture was then poured on Parafilm® M (Sigma) and left to solidify in a humidified chamber (FIG. 15). […] PA and US data have been analyzed using VevoLab 3.2.5 software (FIG. 15).

5637 cells = assay: Cell adhesion assay on coated microtiter plates; format: cell-based, human; conditions: crystal violet stain
Description: (§3) The plates were washed and blocked with 2% BSA in DMEM or RPMI-1640 (200 μl/well, 1 h). MB49-Luc and 5637 cells were detached with DPBS-E, washed twice with DPBS, and suspended in DMEM or RPMI-1640 containing 0.1% BSA (binding buffer-3), and added to the coated-plates (1.5×10^5 cells/well, 100 μl). After 1-2 h of incubation at 37° C., 5% CO2, the plates were washed with binding buffer-3. Adherent cells were fixed and stained with 0.5% crystal violet in 20% methanol. After washing with water, the dye was extracted from cells using a 10% acetic acid solution (140 μl/well) and the absorbance at 570 nm was measured using a microplate reader.

[2] = Physicochemical characterization of GNRs (VIS-NIR, TEM, zeta potential)
Description: Characterization of the physicochemical properties of GNRs@CTAB, GNRs@Chit and functionalized GNRs@Chit-Iso4: Gold concentration was determined by flame atomic absorption spectroscopy (FAAS) using a SpectraAA 100 Varian spectrometer (Agilent Technologies, Santa Clara, USA). Gold nanorods (100 μL) were dissolved in aqua regia (3 mL) and diluted to 10 mL with ultrapure water prior to analysis. For the calibration of the FAAS analysis, Au standard solutions at 1, 2, 5 and 10 mg/L were prepared by diluting the appropriate amounts of […] TraceCERT® solutions in 30% aqua regia.
VIS-NIR absorption spectra (range 400-1100 nm) were recorded using a Cary 3500 UV-VIS-NIR modular spectrometer (Agilent Technologies, Santa Clara, USA) using a 1 cm path-length plastic cuvette.
Transmission Electron Microscopy (TEM) was performed using a TEM/STEM FEI TECNAI F20 operating at 200 keV equipped with a probe for energy-dispersing x-ray spectroscopy (EDX), selected-area electron diffraction (SAED) and High Angle Annular Dark Field Detector (HAADF). Before the analysis, samples were placed on a continuous-carbon film, supported on a copper grid and dried at 120° C.
Zeta potential measurements were performed using a Zetasizer-nano-S (Malvern Panalytical, Malvern, UK) in DTS1060C-Clear disposable zeta cells, at 25° C.

MB49-Luc cells = assay: Cell adhesion assay on coated microtiter plates; format: cell-based, murine
Description: as §3

[3] = Stability of GNRs in human urine; format: physicochemical; conditions: 37° C.
Description: Stability of GNRs@Chit and GNRs@Chit-Iso4 in human urine: The stability of GNRs@Chit-Iso4 in human urine was assessed by diluting the GNR solution (0.725 mM of Au in 10 ml of water) with human urine samples (10 ml) collected from 10 healthy adult volunteers (4 males and 6 females) and placed under stirring in a water bath at 37° C. At various time points, 1 mL of the mixture was withdrawn, diluted in 10 mL of cold water (+4° C.) and subjected to VIS-NIR. A urine solution (50% in water) was used as the blank reference in the spectrometric analysis.

[4] = system: MB49-Luc derived orthotopic bladder tumor; assay: PAI of orthotopic MB49-Luc bladder tumor after intravesical instillation; format: in vivo, mice; conditions: for detection of lesions undetectable by US imaging: small orthotopic tumor
Description: Murine orthotopic bladder tumor model: All procedures and studies involving mice were approved by the Institutional Animal Care and Use Committee of San Raffaele Scientific Institute and performed according to the prescribed guidelines (IACUC, approval number 942). Female albino C57BL/6J mice (9 weeks old, weighing about 20 g, Charles River Laboratories, Italy) were anesthetized with ketamine (80 mg/kg) and xylazine (15 mg/kg) and kept in dorsal position. Using a 24-gauge catheter, the bladder of each mouse was emptied and instilled with or without MB49-Luc cells (10^5 cells/100 μl in DPBS). Thirty minutes later the catheter was removed, and mice were allowed to recover and returned to their cage. Tumor growth was monitored by measuring the tumor volume through US imaging (see below) and in vivo bioluminescent quantification after administration of luciferin (15 mg/kg, intra peritoneum) using the non-invasive In Vivo Imaging System (IVIS, PerkinElmer, USA).
as §1
3D B mode scan was carried out for in vitro (drop) and in vivo (mouse bladder) studies. The photoacoustic spectra between 680 nm and 970 nm were scanned with a step size of 5 nm; for the in vivo studies (murine bladder) the 3D multispectral PA scans were acquired selecting PA spectral curve of tissue components melanin, deoxy- and oxy-generated blood, and GNRs; the processed wavelengths (680; 722; 764; 810; 924; 970 nm) were automatically selected from the spectral curve used to spectrally unmix the GNRs signal from other endogenous tissue chromophore signals such as oxy, deoxy hemoglobin. The algorithm reported by Luke et al was used to select these wavelengths which is ideal for separating the signal from GNRs from other endogenous absorbers.
Data analyses were conducted using the Vevo® Lab software; volumes of interest were obtained by manually drawing Volumes of Interest (VOIs) on 3D B-mode images. GNRs, melanin, oxy- and deoxy-hemoglobin content were estimated through spectral unmixing analyses of the spectroscopic data.

[5] = In vivo PAI of murine bladder after intravesical instillation; design: species or system mice; conditions: three cycles of manual handling, two washes
Text: as §1, §2

GNRs@Chit-Iso4: gold nanorods coated with thiolated chitosan, coupled via NHS-PEG12-maleimide crosslinker to the Iso4 peptide
behaviour under pulsed laser with light attenuators without IL [1]: underwent reshaping
cell adhesion to solid phase coated with the substance (5637 cells): induced cell adhesion and spreading
GNRs length ([2]; TEM): 90.2±7.2 nm and 90.2 ± 7.2d nm
GNRs width ([2]; TEM): 24.9±2.6 nm and 24.9 ± 2.6d nm
λmax (wavelength of max absorbance, longitudinal-LSPR peak) ([2]; VIS-NIR): 802 nm
Aspect Ratio ([2]; calculated as the length/width ratio): 3.62±0.67 and 3.6 ± 0.6
increase of cell adhesion caused by urine (MB49-Luc cells; MB49-Luc cells in DMEM medium containing 25-75% urine): ~20%
cell adhesion to solid phase coated with the substance (MB49-Luc cells; MB49-Luc cells, crystal violet stain): induced cell adhesion and spreading
incubation time in urine without dramatic loss of optical properties in the NIR [3]: at least 2 h
reduction of the absorbance at ~800 nm ([3]; human urine, first 40 minutes): 14%
further reduction of the absorbance at ~800 nm ([3]; human urine, following 80 minutes): 7%
change in the shape of the LSPR spectrum ([3]; human urine, up to 2 h): No significant change
PA signal at tumor without manual handling of urine ([4]; 3 nmol Au, two washing steps, tumor on the left side): lack of PA signal
volume of small tumor detected ([4]; 4 days after MB49-Luc cell implantation): 7.9 mm^3
detection of lesions undetectable by US imaging [4]: can reveal the presence of lesions undetectable with US imaging and bioluminescence
detection of lesions undetectable by US imaging ([4]; listed as GNR@Chit-Iso4): a neoplastic region in the upper region of the bladder that was undetectable by US scan
binding in tumor bearing mice by PAI ([4]; well-established tumor, three cycles of manual handling, two washes): to the three well-established neoplastic lesions at the bottom, lateral side and upper part of the bladder, and not present in non-neoplastic tissue
binding in healthy mice [5]: no binding
